Values quoted from earlier work, collected in paper PMC8910494.

Target: FICD (Homo sapiens) (UniProt Q9BVA6)

FICD (from UniProt Q9BVA6)
Kd: 1.2 nM
